How the values were obtained:
GFP-EB1 (human) (human) = GFP-EB1 (human) (human) (UniProt Q15691); assay: TIRF microscopy of reconstituted dynamic microtubules
[1] = target: microtubules of tubulin purified from bovine brain (bovine) (UniProt Q6B856); assay: co-sedimentation; settings: scale: molecule per 100 dimers of polymerized tubulin
[2] = target: biotinylated EB1 (mouse end-binding protein 1) (mouse) (UniProt Q61166); assay: pull-down
Chain of biotinylated EB1 (mouse end-binding protein 1) (mouse) (Q61166 whole entry): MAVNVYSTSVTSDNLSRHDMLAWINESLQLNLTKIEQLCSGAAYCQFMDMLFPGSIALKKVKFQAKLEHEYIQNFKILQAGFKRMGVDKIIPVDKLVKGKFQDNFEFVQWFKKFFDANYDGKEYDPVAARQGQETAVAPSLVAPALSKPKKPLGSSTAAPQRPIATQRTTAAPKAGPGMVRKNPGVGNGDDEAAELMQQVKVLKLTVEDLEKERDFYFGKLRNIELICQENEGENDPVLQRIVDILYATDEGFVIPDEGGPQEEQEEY

Chain of GFP-EB1 (human) (human) (Q15691 whole entry): as the sequence (Q61166 whole entry) above, with E123D, S147N, G154T, T157S, A165S, T170A, M179V, K201N counted along it

Row | GFP-EB1 comet intensity at microtubule ends with 75 nM tau protein (GFP-EB1 (human) (human)) | tau molecules bound per 100 dimers of polymerized tubulin [1] | percent bound to EB1 compared with tau [2] | Substance
1 | 7 a.u. | – | – | P2R′-tau (tau fragment from P2 to R′) (from UniProt P10636-7 169-371) (domain or fragment)
2 | – | 1 | 50.1% | S262E-tau (phosphomimetic tau, serine 262 replaced by glutamate) (natural protein)
